Experimental data reported in PMC8974011.

Target: T1, endogenous STAT1 of HeLa cells (human (endogenous in HeLa)), P42224
T1 chain: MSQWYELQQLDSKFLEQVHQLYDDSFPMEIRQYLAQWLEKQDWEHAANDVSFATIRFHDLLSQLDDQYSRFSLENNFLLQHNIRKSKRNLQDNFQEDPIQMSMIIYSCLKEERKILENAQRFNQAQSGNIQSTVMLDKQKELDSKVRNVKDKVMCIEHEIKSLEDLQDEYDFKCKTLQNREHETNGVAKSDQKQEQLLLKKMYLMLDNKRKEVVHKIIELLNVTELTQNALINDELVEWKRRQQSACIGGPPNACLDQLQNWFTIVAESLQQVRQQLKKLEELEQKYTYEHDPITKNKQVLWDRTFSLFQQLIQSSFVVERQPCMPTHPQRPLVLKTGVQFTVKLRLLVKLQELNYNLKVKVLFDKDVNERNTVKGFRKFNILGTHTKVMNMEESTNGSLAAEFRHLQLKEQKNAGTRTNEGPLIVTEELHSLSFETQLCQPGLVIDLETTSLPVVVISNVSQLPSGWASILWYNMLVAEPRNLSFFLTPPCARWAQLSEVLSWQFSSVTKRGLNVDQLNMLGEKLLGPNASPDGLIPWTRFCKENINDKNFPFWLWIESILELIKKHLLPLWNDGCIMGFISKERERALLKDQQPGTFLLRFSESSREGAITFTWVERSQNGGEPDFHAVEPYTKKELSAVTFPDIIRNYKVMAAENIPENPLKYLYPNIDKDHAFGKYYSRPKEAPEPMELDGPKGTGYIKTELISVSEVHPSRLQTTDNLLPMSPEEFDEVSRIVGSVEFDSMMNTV
Experiment: native gel or EMSA; extracts of IFNγ-stimulated HeLa cells incubated with [33P]-labelled 2xGAS duplex DNA (two tandem GAS sites); super-shift with STAT1 antibody; competition with 750-fold molar excess of unlabelled M67 DNA; 4.8% acrylamide gel at 4 °C; only DNA-bound complexes are seen
Settings: remark: other sources report otherwise

B1: endogenous STAT1 of HeLa cells, P42224 1-750 (natural protein)
chain: MSQWYELQQLDSKFLEQVHQLYDDSFPMEIRQYLAQWLEKQDWEHAANDVSFATIRFHDLLSQLDDQYSRFSLENNFLLQHNIRKSKRNLQDNFQEDPIQMSMIIYSCLKEERKILENAQRFNQAQSGNIQSTVMLDKQKELDSKVRNVKDKVMCIEHEIKSLEDLQDEYDFKCKTLQNREHETNGVAKSDQKQEQLLLKKMYLMLDNKRKEVVHKIIELLNVTELTQNALINDELVEWKRRQQSACIGGPPNACLDQLQNWFTIVAESLQQVRQQLKKLEELEQKYTYEHDPITKNKQVLWDRTFSLFQQLIQSSFVVERQPCMPTHPQRPLVLKTGVQFTVKLRLLVKLQELNYNLKVKVLFDKDVNERNTVKGFRKFNILGTHTKVMNMEESTNGSLAAEFRHLQLKEQKNAGTRTNEGPLIVTEELHSLSFETQLCQPGLVIDLETTSLPVVVISNVSQLPSGWASILWYNMLVAEPRNLSFFLTPPCARWAQLSEVLSWQFSSVTKRGLNVDQLNMLGEKLLGPNASPDGLIPWTRFCKENINDKNFPFWLWIESILELIKKHLLPLWNDGCIMGFISKERERALLKDQQPGTFLLRFSESSREGAITFTWVERSQNGGEPDFHAVEPYTKKELSAVTFPDIIRNYKVMAAENIPENPLKYLYPNIDKDHAFGKYYSRPKEAPEPMELDGPKGTGYIKTELISVSEVHPSRLQTTDNLLPMSPEEFDEVSRIVGSVEFDSMMNTV
modifications: here or on the partner: phospho-tyrosine 701 (P-STAT1, IFNγ-stimulated cells); phospho-tyrosine 701 (P-STAT1, IFNγ-stimulated cells)
stoichiometry N: 4
